Results reported in patent US20250352611A1, “METHODS FOR TREATING CATARACTS USING POLYPEPTIDES” (REJUKON BIOPHARM INC., priority 2022, published 2025).
Where no end group is shown, it is not given here.

T1: wild-type human full-length γD-crystallin (human, UniProt P07320 1-174)
T1 construct: It was uniformly 15N-labelled for the HSQC experiment and unlabelled for the turbidity assay; also called full-length wildtype γD-crystallin protein; 15N γD-crystallin
T1 sequence (looked up): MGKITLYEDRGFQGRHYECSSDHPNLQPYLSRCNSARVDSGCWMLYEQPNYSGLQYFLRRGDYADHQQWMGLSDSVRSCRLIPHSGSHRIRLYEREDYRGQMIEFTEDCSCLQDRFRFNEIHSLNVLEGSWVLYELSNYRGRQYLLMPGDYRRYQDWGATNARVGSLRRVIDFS

B1: RQIKIWFQNRRMKWKKKTKPQKKSKKKVKKPKKRQQTPKVVPDDSGTFYDQTVSNDLKSGRPVLHHHHHH (peptide)
chain: RQIKIWFQNRRMKWKKKTKPQKKSKKKVKKPKKRQQTPKVVPDDSGTFYDQTVSNDLKSGRPVLHHHHHH
B2: Champ-E (RJK001) (peptide)
peptide: TEPQEESEEEVEEPEERQQTPEVVPDDSGTFYDQTVSNDLE
notes: The peptide was unlabeled in the NMR experiment; also called short peptide RJK001

Key:
G3BP1-GFP protein = target: T2, G3BP1-GFP protein (Mus musculus, UniProt P97855); test: G3BP1-GFP phase separated droplet dissolution, confocal laser microscope; type: biochemical; conditions: 60 uM polypeptide, 20 uM G3BP1-GFP
T2 construct: Genes of full-length mouse G3BP1, G3BP1-eGFP; thrombin protease cleavage site (C); His6 (C); made in house; host or cells: Escherichia coli rosetta (DE3)
Description: The prokaryotic expressed and purified G3BP1-GFP protein (pH7.5, 20 uM G3BP1-GFP) was induced to form phase separated droplets in vitro. Polypeptides Champ-E (RJK001), Champ-D (RJK002), Champ-K (RJK012) and Champ-Q (RJK005, […], SEQ ID NO: 34) (each of 60 uM) were added dropwise to the G3BP1-GFP droplets. The observation was performed continuously through a confocal laser microscope.
For G3BP1(FL)-eGFP, purified G3BP1(FL)-eGFP, Champ-E and its variants were changed were diluted to droplet buffer (50 mM Tris, pH 7.5, 150 mM NaCl) using SpinDesalt Column (smart). G3BP1(FL)-eGFP proteins were diluted to indicated concentrations and supplemented with PEG8000 with 1.25% final concentration for 10 min to induce phase separation as reported.

G3BP1 = target: T3, G3BP1 (Mus musculus, UniProt P97855); test: G3BP1 turbidity assay (OD395 nm); type: biochemical; conditions: G3BP1 30 μM, ratio range 0.75 to 25, room temperature, 10 minutes
T3 construct: Genes of full-length mouse G3BP1, G3BP1-eGFP; thrombin protease cleavage site (C); His6 (C); made in house; host or cells: Escherichia coli rosetta (DE3)
Description: The turbidity of G3BP1 (30 μM) in the presence of various concentrations of Champ-E, Champ-D, Champ-K, or Champ-Q was measured at a wavelength of 395 nm. Briefly, G3BP1 protein ([…]) and polypeptides Champ-E (RJK001), Champ-D (RJK002), Champ-K (RJK012) and Champ-Q (RJK005) were mixed well in a ratio range of 0.75 to 25 at room temperature for 10 minutes prior to turbidity assays. Absorbance at 395 nm (OD395 nm) was monitored at room temperature using Nanodrop ONE (Thermo Fisher Scientific, Inc.). […] The turbidity level reflects the degree of phase separation.
Briefly, the G3BP1 protein and the above-mentioned peptides were mixed at room temperature for 10 minutes prior to turbidity assays. 30 μM G3BP1 and peptide were mixed well in a ratio range of 0.75 to 25 before test. Absorbance at 395 nm (OD395 nm) was monitored at room temperature using Nanodrop ONE (Thermo Fisher Scientific, Inc.).
We followed the Turbidity Assays experiment as previously reported. Briefly, G3BP1 turbidity analysis were at room temperature and γD-crystallin protein was at 4° C. Proteins and Champ-E(RJK001), Champ-K, Champ-D or mutants are mixed at room temperature for 10 minutes prior to turbidity assays. 20 μM G3BP1 and 50 mg/ml(2.5 mM) γD-crystallin and peptide were mixed well in a ratio range of 0.75 to 25 before test. Absorbance at 395 nm (OD395 nm) was monitored at room temperature using Nanodrop ONE (Thermo Fisher Scientific, Inc.).

[1] = tested on: γD (W42D) aggregates in the SH-SY5Y cell; test: γD (W42D) aggregates in SH-SY5Y cells, live imaging and CellProfiler analysis; type: cell-based; conditions: added every 4 hours for a total of 24 hours
Description: Cells were grown in a 12-well plate (1×10^5 cells per well) for 24 hours and transfected with γD (W42D) plasmid using EZtrans transfection reagent. 24 hours after transfection, Champ peptides RJK001 (final concentration of 20 uM) and RJK0012 (final concentration of 10 uM and 20 uM) were added into SH-SY5Y cell culture medium every 4 hours for a total of 24 hours. The effect of RJK001 and RJK012 polypeptide on the γD (W42D) aggregates in the SH-SY5Y cell mode were analyzed using a custom CellProfiler software. Briefly, cell bodies were then segmented and identified by the GFP fluorescence channel images and tracing outward to the limits of the cytoplasmic (using a diameter cutoff of 100-300 pixels). The cell bodies were used as masks to eliminate imaging artifacts outside of cell boundaries, such as background fluorescence or dead cells. After masking, punctate structures were enhanced by image processing for speckle-like features that were 10 pixels in diameter for SH-SY5Y cells and these punctate structures were then annotated as features such as γD (W42D) puncta. Finally, the total image area which was enclosed in each of the identified features (number of cell and punctate) was calculated and output to spreadsheets. At least 200 cells per sample were analyzed. […]
Granules screen and assay images were segmented and image features quantified using a custom CellProfiler and ImageJ software. […] The effect of RJK001 and RJK012 polypeptide on the γD ([…]) aggregates in the SH-SY5Y cell mode were analyzed using a custom CellProfiler software. Briefly, cell bodies were then segmented and identified by the GFP fluorescence channel images and tracing outward to the limits of the cytoplasmic (using a diameter cutoff of 100-300 pixels). The cell bodies were used as masks to eliminate imaging artifacts outside of cell boundaries, such as background fluorescence or dead cells. […] Finally, the total image area which was enclosed in each of the identified features (number of cell and punctate) was calculated and output to spreadsheets. At least 200 cells per sample were analyzed.

[2] = Half-life of cell-penetrating peptide fused Champ peptides in eukaryotic cells (western blot); type: in vitro ADME; conditions: SH-SY5Y cells harvested at 1 h, 4 h, 8 h and 24 h, western blot
Description: (§1) As described in Example 1, the polypeptide RJK001 was fused at its C-terminal with a cell-penetrating peptide ([…]) and the polypeptide RJK012 was fused at its N-terminal with a cell-penetrating peptide ([…]).
(§2) C-terminal fusion cell-penetrating peptide RJK001 and N-terminal fusion cell-penetrating peptide RJK012 were purified in vitro and added into SH-SY5Y cell. Cells were harvested at 1 h, 4 h, 8 h and 24 h respectively and were washed with PBS. Total proteins were extracted from SH-SY5Y cells with lysis buffer. Equal amounts of protein (20 μg) were separated by SDS-PAGE (15% separating gel). For data analysis, ImageJ was used to detect the Integrated density of each protein bands, and the ratio and half-life of Champ peptides were calculated by comparing with the positive control. […]
(§3) Cells were harvested at 1 h, 4 h, 8 h and 24 h respectively and were washed with PBS. […] For data analysis, quantification of the western blot bands was achieved using the software GELPRO (Media Cybernetics). The ratio and half-life of Champ peptides were calculated by comparing with the positive control. The presented quantitative data were calculated from three independent experiments.

SH-SY5Y cells = test: as above; type: in vitro ADME
Description: as §1, §2, §3

[3] = target: T1, wild-type human full-length …; test: 1H-15N HSQC NMR chemical shift differences, 15N γD-crystallin with unlabeled RJK001 at 1:2
Description: Using final 300 uM human γD-crystallin at 25° C., the two-dimensional [¹H-¹⁵N] heteronuclear single quantum coherence (HSQC) spectra were recorded to determine the domain interactions at the residue-specific level.

Molecule | dissolution of G3BP1-GFP phase separated droplets (G3BP1-GFP protein; pH7.5, 40s after addition) | turbidity of G3BP1 (OD395 nm) (G3BP1) | dissolution of G3BP1-GFP phase separated droplets (G3BP1-GFP protein; pH7.5, 120s after addition) | also measured
TKPQKKSKKKVKKPKKRQQTPKVVPDDSGTFYDQTVSNDLK [RJK012, Lys variant of Champ-E] | significantly dissolved the phase separated droplets | reduced the turbidity in a concentration dependent manner | – | number of γD (W42D) aggregates in the SH-SY5Y cell ([1]; 10 uM): reduced the number of γD (W42D) aggregates in the SH-SY5Y cell in a time-dependent manner until 6 hours; number of γD (W42D) aggregates in the SH-SY5Y cell ([1]; 20 uM): reduced the number of γD (W42D) aggregates in the SH-SY5Y cell in a time-dependent manner until 12 hours
TEPQEESEEEVEEPEERQQTPEVVPDDSGTFYDQTVSNDLEGGRKKRRQRRRHHHHHHHH | – | – | – | half-life [2]: ~480 min
TDPQDDSDDDVDDPDDRQQTPDVVPDDSGTFYDQTVSNDLD [RJK002, Asp variant of Champ-E] | partially dissolved the phase separated droplets | reduced the turbidity in a concentration dependent manner | dissolved more phase separated droplets | –
TQPQQQSQQQVQQPQQRQQTPQVVPDDSGTFYDQTVSNDLQ [RJK005] | – | much less effect on the reduction of the turbidity | did not dissolve the phase separated droplets | –
B1 | – | reduce the turbidity in a concentration dependent manner | – | half-life in eukaryotic cells (SH-SY5Y cells): about 8 hours
B2 | – | – | – | binding result [3]: binds
